No end group written: not given here. *: point of attachment. FITC = O=C1OC2(c3ccc(O)cc3Oc3cc(O)ccc32)c2ccc(NC(=S)*)cc21
Biological target: T1, Synuclein-gamma (SNCG) (UniProt O76070 1-127)
T1 construct: Intracellular protein in MCF7-SNCG cells; also called γ-synuclein; gamma synuclein
Test: co-immunoprecipitation with anti-SNCG antibody from treated MCF7-SNCG cell lysates, western blot with anti-FITC antibody

T1 sequence (O76070 whole entry): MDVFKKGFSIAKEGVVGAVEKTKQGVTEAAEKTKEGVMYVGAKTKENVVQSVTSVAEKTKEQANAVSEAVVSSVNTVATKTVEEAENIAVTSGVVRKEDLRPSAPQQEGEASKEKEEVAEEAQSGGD

B1: FITC tagged GYGRKKRRQRRR (TAT) alone (peptide)
peptide: {FITC}-GYGRKKRRQRRR
notes: Control peptide in the co-immunoprecipitation; also called TAT CTL; control peptide
  binding result: no binding

Source: patent publication US20160038561A1 (SYNG PHARMACEUTICALS, published 2016)
